Data as given in US20240400717A1 (NATIONAL CHENG KUNG UNIVERSITY, published 2024).
Substitutions are numbered along the chain they refer to. Like-named read-outs stand apart in the source and are kept apart here. Each block holds one binder with its values, some of them ahead of it.

Legend:
mouse rCHI3L1 [1] = target: T1, mouse rCHI3L1 (mouse, UniProt Q61362 30-389, limits assumed); assay: phage ELISA (4th round single clone screening): coated protein, rescued phage supernatant, anti-M13-HRP, OD450
T1 construct: also called mouse CHI3L1; murine CHI3L1
T1 sequence (Q61362 30-389 limits assumed): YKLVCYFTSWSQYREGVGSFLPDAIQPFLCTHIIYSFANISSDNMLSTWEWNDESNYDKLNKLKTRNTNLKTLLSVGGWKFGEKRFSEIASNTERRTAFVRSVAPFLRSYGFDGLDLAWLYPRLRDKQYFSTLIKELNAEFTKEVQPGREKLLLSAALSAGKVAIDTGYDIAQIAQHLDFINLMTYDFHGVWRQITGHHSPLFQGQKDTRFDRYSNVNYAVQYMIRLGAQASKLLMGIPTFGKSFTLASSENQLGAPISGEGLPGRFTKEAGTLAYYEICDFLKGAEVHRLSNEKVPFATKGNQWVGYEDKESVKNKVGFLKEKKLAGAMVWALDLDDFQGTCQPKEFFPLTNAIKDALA

recombinant human CHI3L1 [2] = target: T2, recombinant human CHI3L1 (human, UniProt P36222 22-383); assay: as above
T2 construct: also called rCHI3L1; human rCHI3L1
T2 sequence (P36222 22-383 limits assumed): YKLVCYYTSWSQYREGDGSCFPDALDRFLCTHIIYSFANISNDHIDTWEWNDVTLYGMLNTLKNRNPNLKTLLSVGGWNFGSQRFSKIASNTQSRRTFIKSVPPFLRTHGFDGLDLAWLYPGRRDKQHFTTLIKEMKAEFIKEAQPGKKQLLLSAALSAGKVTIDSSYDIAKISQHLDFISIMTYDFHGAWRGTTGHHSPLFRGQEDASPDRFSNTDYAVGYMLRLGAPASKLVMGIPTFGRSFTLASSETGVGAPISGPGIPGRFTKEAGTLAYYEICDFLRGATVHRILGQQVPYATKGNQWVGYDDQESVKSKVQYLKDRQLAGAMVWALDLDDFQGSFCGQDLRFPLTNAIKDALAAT

recombinant human CHI3L1 [3] = target: T2, recombinant human CHI3L1; assay: ELISA: coated human rCHI3L1 titrated 2.5 to 0 µg/ml, antibody concentration not given, OD450
[4] = target: T3, human CHI3L1 extracellular domain fused with flag and His tag recombinant protein (human, UniProt P36222 22-383); assay: BLI (ForteBio Octet), mAb captured on AHC sensor, hCHI3L1/flag-His as analyte
T3 construct: extracellular domain; also called hCHI3L1/flag-His; hCHI3L1; not shown: flag and His tag
T3 sequence (P36222 22-383 limits assumed): as above

CHI3L2 [5] = target: T4, CHI3L2 (human, UniProt Q15782 27-390, limits assumed); assay: ELISA: coated recombinant protein titrated 2.50 to 0.00 µg/ml, antibody at 1 µg/ml, OD450
T4 construct: The sentence reads 'human chitotriosidase-1 (CHIT1) and CHI3L2'
T4 sequence (looked up): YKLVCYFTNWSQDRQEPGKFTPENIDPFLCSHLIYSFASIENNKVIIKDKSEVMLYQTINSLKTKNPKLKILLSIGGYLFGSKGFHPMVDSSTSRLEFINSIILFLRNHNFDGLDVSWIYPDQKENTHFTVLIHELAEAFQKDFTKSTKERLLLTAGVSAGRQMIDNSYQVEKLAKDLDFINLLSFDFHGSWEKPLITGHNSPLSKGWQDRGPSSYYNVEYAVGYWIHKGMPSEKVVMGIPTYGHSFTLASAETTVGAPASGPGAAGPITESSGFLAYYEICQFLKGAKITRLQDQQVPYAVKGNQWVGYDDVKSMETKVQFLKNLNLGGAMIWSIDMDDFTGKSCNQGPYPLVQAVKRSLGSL

recombinant human CHI3L1 [6] = target: T2, recombinant human CHI3L1; assay: as above
[7] = target: T5, human chitotriosidase-1 (CHIT1) (human, UniProt Q13231 22-466, limits assumed); assay: as above
T5 sequence (Q13231 22-466 limits assumed): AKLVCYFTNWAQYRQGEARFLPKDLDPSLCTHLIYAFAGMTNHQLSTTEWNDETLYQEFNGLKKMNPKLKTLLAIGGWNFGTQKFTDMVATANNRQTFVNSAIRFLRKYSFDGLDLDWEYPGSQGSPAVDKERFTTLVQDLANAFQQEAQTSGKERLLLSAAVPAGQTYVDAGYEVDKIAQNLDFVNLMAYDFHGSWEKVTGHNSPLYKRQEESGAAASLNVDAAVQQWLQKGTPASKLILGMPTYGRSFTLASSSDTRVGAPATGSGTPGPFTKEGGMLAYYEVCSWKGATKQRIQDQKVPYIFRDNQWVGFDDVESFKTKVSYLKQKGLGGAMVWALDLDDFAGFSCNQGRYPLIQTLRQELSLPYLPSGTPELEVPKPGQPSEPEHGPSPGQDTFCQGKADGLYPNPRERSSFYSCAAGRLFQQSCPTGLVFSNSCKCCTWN

mouse rCHI3L1 [8] = target: T1, mouse rCHI3L1; assay: phage ELISA (4th round single clone screening): coated protein, rescued phage supernatant, anti-M13-HRP, OD450; remark: listed apart in the source
recombinant human CHI3L1 [9] = target: T2, recombinant human CHI3L1; assay: as above; remark: listed apart in the source
CHI3L2 [10] = target: T4, CHI3L2; assay: ELISA: coated recombinant protein titrated 2.50 to 0.00 µg/ml, antibody at 1 µg/ml, OD450; remark: listed apart in the source
recombinant human CHI3L1 [11] = target: T2, recombinant human CHI3L1; assay: as above; remark: listed apart in the source
[12] = target: T5, human chitotriosidase-1 (CHIT1); assay: as above; remark: listed apart in the source
mouse rCHI3L1 [13] = target: T1, mouse rCHI3L1; assay: phage ELISA (3rd round single clone screening): coated protein, rescued phage supernatant, anti-M13-HRP, OD450
CHI3L2 [14] = target: T4, CHI3L2; assay: ELISA: coated recombinant protein titrated 2.50 to 0.00 µg/ml, antibody at 1 µg/ml, OD450; remark: listed apart in the source
recombinant human CHI3L1 [15] = target: T2, recombinant human CHI3L1; assay: as above; remark: listed apart in the source
[16] = target: T5, human chitotriosidase-1 (CHIT1); assay: as above; remark: listed apart in the source
mouse rCHI3L1 [17] = target: T1, mouse rCHI3L1; assay: ELISA: coated mouse rCHI3L1 titrated 2.5 to 0 µg/ml, antibody concentration not given, OD450
CHI3L2 [18] = target: T4, CHI3L2; assay: ELISA: coated recombinant protein titrated 2.50 to 0.00 µg/ml, antibody at 1 µg/ml, OD450; remark: listed apart in the source
recombinant human CHI3L1 [19] = target: T2, recombinant human CHI3L1; assay: as above; remark: listed apart in the source
[20] = target: T5, human chitotriosidase-1 (CHIT1); assay: as above; remark: listed apart in the source

binding result (mouse rCHI3L1 [1]): no binding
binding result (recombinant human CHI3L1 [2]): binds
B1: anti-CHI3L1 clone R4-53 (antibody, human IgG1, V domains shown)
VH: QVQLVQSGAEVKKPGASVKVSCKASGYTFTSYYMHWVRQAPGQGLEWMGIINPSGGSTSYAQKFQGRVTMTRDTSTSTVYMELSSLRSEDTAVYYCASDIGDYGDYWGQGTTVTVSS
VL: SYVLTQPPSVSVALGQTARITCGGNNIESKIVSWYQQKPGQAPVLVIFYDTDRPSGISERFSGSNSGNTATLTISRVEAGDEADYYCQVWDSNSDHVIFGGGTKLTVLG
notes: also called #hu R4-53

binding result (mouse rCHI3L1 [1]): no binding
binding result (recombinant human CHI3L1 [2]): binds
B2: anti-CHI3L1 clone R4-93 (antibody, human IgG1, V domains shown)
VH: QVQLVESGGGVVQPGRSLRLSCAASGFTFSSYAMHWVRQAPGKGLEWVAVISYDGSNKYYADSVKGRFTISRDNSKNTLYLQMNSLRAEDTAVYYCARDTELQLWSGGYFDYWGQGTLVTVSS
VL: NFMLTQPHSVSESPGKTVIISCTRSSGSIAHNYVQWYQLRPGSAPTTVISDDDQRPSGVPDRFSGSIDSSSNSASLTISGLRTEDEADYYCQSFDDSNWVFGGGTRLTVLG
notes: also called #hu R4-93

EC50 (read off the curve) (recombinant human CHI3L1 [3]): ~0.6 mg/L
Kd [4]: 1.13 nM
koff [4]: 0.000353 s⁻¹
kon [4]: 313000 M⁻¹ s⁻¹
binding result (CHI3L2 [5]): no binding
EC50 (read off the curve) (recombinant human CHI3L1 [6]): ~0.5 mg/L
binding result [7]: no binding
binding result (mouse rCHI3L1 [8]): binds
B3: anti-CHI3L1 clone R4-4 (antibody, V domains shown)
VH: EVQLLESGGGLLQPGGSLRLSCAASGLTFRNYAMTWVRQAPGKGLEWVSTISGNGDETFYADSVKGHFTISRDNSKDTVYLQMNSLRAEDTAVYYCAKGGHYSFFDSWGQGSPVTVSS
VL: NFMLTQPHSVSESPGKTVTISCTRSSGSIASNYVQWYQQRPGSSPTTVIYEDNQRPSGVPDRFSGSIDSSSNSASLTISGLKTEDEADYYCQSYDSSNYVFGTGTKVTVLG
notes: also called #hu R4-4; mAb clone R4-4

binding result (recombinant human CHI3L1 [2]): binds
B4: anti-CHI3L1 clone R4-62 (antibody, human IgG1, V domains shown)
VH: EVQLVESGGGLVQPGGSLRLSCAASGLTFPNFAMTWVRQTPGKGLQWVSTISGRGDEPFYADSVKGRFTISRDNSKNMVYLHMNSLRAEDTAIYYCAKGGHFSSWDYWGQGTLVTVSS
VL: B3 VL with G42D, S44A, N53I, Q54E, S66A, S71A, K82Q, N98S
notes: also called #hu R4-62

binding result (mouse rCHI3L1 [8]): no binding
binding result (recombinant human CHI3L1 [9]): binds
B5: anti-CHI3L1 clone R4-2 (antibody, human IgG1, V domains shown)
VH: QVQLVQSGAEVKKPGSSVKVSCKASGGTFSSYAISWVRQAPGQGLEWMGGIIPIFGTANYAQKFQGRVTITADESTSTAYMELSSLRSEDTAVYYCARGDIEYYDILTGYYYYFDYWGQGTLVTVSS
VL: SYVLTQPPSVSVAPGKAARVTCGGNDIGSKSVQWYQQKPGQAPVLVISYDNDRPSGIPERFSGSNSGNTATLTISRVEAGDEADYYCQVWDSTSDHYVFGTGTKVTVQG
notes: also called #hu R4-2

binding result (mouse rCHI3L1 [1]): no binding
binding result (recombinant human CHI3L1 [2]): binds
B6: anti-CHI3L1 clone R4-63 (antibody, human IgG1, V domains shown)
VH: EVQLVQSGAEVKKPGATVKISCKVSGYTFTDYYMHWVQQAPGKGLEWMGLVDPEDGETIYAEKFQGRVTITADTSTDTAYMELSSLRSEDTAVYYCATIGRPPDYWGQGTTVTVSS
VL: QSVLTQPPSVSAAPGQKVTISCSGSSSNIGNNYVSWYQQLPGTAPKLLIYDNNKRPSGIPDRFSGSKSGTSATLGITGLQTGDEADYYCGTWDSSLSVWVFGGGTKLTVLG
notes: also called #hu R4-63

binding result (mouse rCHI3L1 [8]): no binding
binding result (recombinant human CHI3L1 [9]): binds
B7: anti-CHI3L1 clone R4-39 (antibody, human IgG1, V domains shown)
VH: EVQLVQSGAEVRKPGESLKISCKASGYRFTNYWIGWVRQMPGKGLEWMGIIYPDDSNTKYSPSFQGQVTISVDKPITTAYLQWSSLKASDTAMYYCVRLDTYYYDSSGFPFDAFDIWGQGTMVTVSS
VL: DIQMTQSPSSLSAFVGDRVTITCQASQDISTFLSWYQQKPGKAPKLLIYDATNLETGVPSRFSGRGSGTDFTFTISSLQPEDVATYFCQQYDFLPLSFGGGTKVEIRR
notes: also called #hu R4-39

binding result (mouse rCHI3L1 [1]): no binding
binding result (CHI3L2 [10]): no binding
EC50 (read off the curve) (recombinant human CHI3L1 [11]): ~0.8 mg/L
binding result [12]: no binding
Kd [4]: 4.22 nM
koff [4]: 0.0065 s⁻¹
kon [4]: 1.54e+06 M⁻¹ s⁻¹
B8: anti-CHI3L1 clone R4-54 (antibody, human IgG1, V domains shown)
VH: QVQLVESGGGVVQPGRSLRLSCAASGFTFSSYGMHWVRQAPGKGLEWVAVISYDGSDKDYADSVKGRFTISRDNSKNTLFLQMNSLRAEDTAVYYCARDDYDSTYYFDNWGQGTTVTVSS
VL: SYELTQPPSVSVSPGQTASITCSGDILADQYASWYQQKPGQSPVLVIYHDTKRPSGVPERFSGSTSGNTATLTISGTQAMDEAAYYCQAWDINTAWVFGGGTQLTVLG
notes: also called #hu R4-54; mAb clone R4-54

binding result (mouse rCHI3L1 [13]): no binding
binding result (CHI3L2 [14]): no binding
EC50 (read off the curve) (recombinant human CHI3L1 [15]): ~0.8 mg/L
binding result [16]: no binding
Kd [4]: 2.79 nM
koff [4]: 0.00302 s⁻¹
kon [4]: 1.08e+06 M⁻¹ s⁻¹
B9: anti-CHI3L1 clone 293R3-2 (antibody, human IgG1, V domains shown)
VH: QVQLQESGPGLVEPSGTLSLTCAVSGGSISSSNWWSWVRQHPGKGLEWIGEIYHSGSTNYNPSLRSRVTISVDKSKNQFSLELSSVTAADTAVYYCAGDQRMEDDAFDIWGQGTMVTVSS
VL: QSALTQPASVSGSPGQSITISCTGTSSDVGGYNYVSWYQQHPGKAPKLMIYDVSNRPSGVSNRFSGSKSGNTASLTISGLQAEDEADYYCSSYTSSSTLYVFGTGTKVTVLG
notes: also called #hu 293R3-2; CHI3L1 293R3-2

binding result (CHI3L2 [18]): no binding
EC50 (read off the curve) (recombinant human CHI3L1 [19]): ~0.8 mg/L
binding result [20]: no binding
Kd [4]: 3.94 nM
koff [4]: 0.00722 s⁻¹
kon [4]: 1.83e+06 M⁻¹ s⁻¹
B10: anti-CHI3L1 clone 293R3-4 (antibody, human IgG1, V domains shown)
VH: EVQLVQSGAEVKKPGATVKISCKVSGYSFTDYYIHWVQQAPGKGLEWMGFVDPENGETIYAEKFQGRVTITADTSTDTAYMELSSLRSDDTAVYYCATDRDYDDSSGNAFDIWGQGTMVTVSS
VL: SYELTQPPSVSVSTGQTATITCSGDILGDEYAFWYQQKAGQSPVLVIYLDTRRPSGIPERFSGSNSGDTATLTISETQPVDEAVYFCQGWDSSTALYVFGTGTKVTVLG
notes: also called #hu 293R3-4; CHI3L1 293R3-4
binding result (mouse rCHI3L1 [17]): no binding (tested: 2.5 µg/ml coated protein)
